Assay results taken from patent publication US20210047402A1 (TENEOBIO, published 2021).
Substitutions are numbered along the chain they refer to. Each block holds one binder with its values, some of them ahead of it.

Molecular target: T1, human CD22 (human, UniProt P20273 20-687, limits assumed)
T1 construct: also called SIGLEC-2; human CD22 protein
T1 sequence (looked up): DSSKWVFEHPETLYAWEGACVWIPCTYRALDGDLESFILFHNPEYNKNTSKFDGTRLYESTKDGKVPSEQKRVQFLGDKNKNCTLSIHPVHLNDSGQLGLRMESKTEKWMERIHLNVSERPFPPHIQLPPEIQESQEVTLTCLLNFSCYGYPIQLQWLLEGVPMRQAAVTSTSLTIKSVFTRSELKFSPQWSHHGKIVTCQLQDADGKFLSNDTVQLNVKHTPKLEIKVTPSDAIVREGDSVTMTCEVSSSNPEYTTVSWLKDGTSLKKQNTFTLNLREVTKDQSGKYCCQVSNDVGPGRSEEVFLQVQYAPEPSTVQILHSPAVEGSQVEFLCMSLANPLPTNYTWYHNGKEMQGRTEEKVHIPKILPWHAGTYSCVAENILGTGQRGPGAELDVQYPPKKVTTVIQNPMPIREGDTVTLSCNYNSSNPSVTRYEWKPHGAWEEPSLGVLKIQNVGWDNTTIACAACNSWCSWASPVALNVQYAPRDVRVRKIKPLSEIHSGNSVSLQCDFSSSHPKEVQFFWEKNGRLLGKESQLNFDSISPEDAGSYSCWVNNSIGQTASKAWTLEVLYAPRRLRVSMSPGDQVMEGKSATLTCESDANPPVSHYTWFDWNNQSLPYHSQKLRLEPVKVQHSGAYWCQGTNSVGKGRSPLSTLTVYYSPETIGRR
Test: ELISA protein and cell-binding assays

B1: anti-CD22 heavy chain-only antibody Clone ID 335203 (antibody, V domains shown)
VH: QLQLQESGPGLVKPSETLSLTCTVSGDSISSGDYYWGWIRQPPGKGLEWIGHIYYSGVTYYNPSLKNRVTISVDTSKNQFSLKLSSVTAADTAVYYCTREDSSNWRSRGQGTLVTVSS
notes: Heavy chain-only antibody (UniAb), no light chain
binding result: binds

B2: anti-CD22 heavy chain-only antibody Clone ID 335266 (antibody, V domains shown)
VH: B1 VH with K13R, D27G, G32S, D33S, H52S, V58S, N67S, N104S
notes: as for B1
binding result: binds

B3: anti-CD22 heavy chain-only antibody Clone ID 335261 (antibody, V domains shown)
VH: B1 VH with V58A, K66E, N104S
notes: as for B1
binding result: binds

B4: anti-CD22 heavy chain-only antibody Clone ID 335307 (antibody, V domains shown)
VH: B1 VH with H52S, V58S, N67S, N104S
notes: as for B1
binding result: binds

B5: anti-CD22 heavy chain-only antibody Clone ID 335273 (antibody, V domains shown)
VH: B1 VH with D27G, G32S, D33S, H52S, V58S, N67S, N104S
notes: as for B1
binding result: binds

B6: anti-CD22 heavy chain-only antibody Clone ID 335293 (antibody, V domains shown)
VH: B1 VH with V58A, K77R, N104S
notes: as for B1
binding result: binds

B7: anti-CD22 heavy chain-only antibody Clone ID 335260 (antibody, V domains shown)
VH: B1 VH with K77R, K83N, N104S
notes: as for B1
binding result: binds

B8: anti-CD22 heavy chain-only antibody Clone ID 335242 (antibody, V domains shown)
VH: B1 VH with D27G, G32S, D33S, V58A, K77R, K83N
notes: as for B1
binding result: binds

B9: anti-CD22 heavy chain-only antibody Clone ID 335274 (antibody, V domains shown)
VH: B1 VH with D27G, G32S, D33S, H52S, V58S, N67S, K77R, K83N, N104S
notes: as for B1
binding result: binds

B10: anti-CD22 heavy chain-only antibody Clone ID 335218 (antibody, V domains shown)
VH: B1 VH with V58A, K77R
notes: as for B1
binding result: binds

B11: anti-CD22 heavy chain-only antibody Clone ID 335245 (antibody, V domains shown)
VH: B1 VH with V58A, N104S
notes: as for B1
binding result: binds

B12: anti-CD22 heavy chain-only antibody Clone ID 335333 (antibody, V domains shown)
VH: B1 VH with D27G, G32S, D33S, H52S, V58S, N67S, T98A, N104S
notes: as for B1
binding result: binds

B13: anti-CD22 heavy chain-only antibody Clone ID 335316 (antibody, V domains shown)
VH: B1 VH with D27G, G32S, D33S, V58A, N104S
notes: as for B1
binding result: binds

B14: anti-CD22 heavy chain-only antibody Clone ID 335219 (antibody, V domains shown)
VH: B1 VH with D27G, G32S, D33S, H52S
notes: as for B1
binding result: binds

B15: anti-CD22 heavy chain-only antibody Clone ID 335263 (antibody, V domains shown)
VH: B1 VH with D27G, S30N, S31D, G32N, D33S, Y34H, V58A, K77R, K83N, N104S
notes: as for B1
binding result: binds

Continued, values first:

binding result: binds
B16: anti-CD22 heavy chain-only antibody Clone ID 335210 (antibody, V domains shown)
VH: B1 VH with D27G, V58A, K77R
notes: as for B1

binding result: binds
B17: anti-CD22 heavy chain-only antibody Clone ID 335285 (antibody, V domains shown)
VH: B1 VH with D27G, G32S, D33S, H52S, N104S
notes: as for B1

binding result: binds
B18: anti-CD22 heavy chain-only antibody Clone ID 335244 (antibody, V domains shown)
VH: B1 VH with V58A, K77R, K83N, N104S
notes: as for B1

binding result: binds
B19: anti-CD22 heavy chain-only antibody Clone ID 335234 (antibody, V domains shown)
VH: B1 VH with H52N, V58A
notes: as for B1

binding result: binds
B20: anti-CD22 heavy chain-only antibody Clone ID 335226 (antibody, V domains shown)
VH: B1 VH with G32S, D33S, H52S, V58S, N67S
notes: as for B1

binding result: binds
B21: anti-CD22 heavy chain-only antibody Clone ID 335297 (antibody, V domains shown)
VH: B1 VH with D27G, G32S, D33S, V58A, K77R, K83N, N104S
notes: as for B1

binding result: binds
B22: anti-CD22 heavy chain-only antibody Clone ID 335230 (antibody, V domains shown)
VH: B1 VH with G8D, D27G, G32S, D33S, Y34H, V58A, K77R, K83N
notes: as for B1

binding result: binds
B23: anti-CD22 heavy chain-only antibody Clone ID 335254 (antibody, V domains shown)
VH: B1 VH with N104S
notes: as for B1

binding result: binds
B24: anti-CD22 heavy chain-only antibody Clone ID 335224 (antibody, V domains shown)
VH: B1 VH with H52S, S56T, V58S, N67S
notes: as for B1

binding result: binds
B25: anti-CD22 heavy chain-only antibody Clone ID 335232 (antibody, V domains shown)
VH: B1 VH with V58A, K77R, F80S, K83N
notes: as for B1

binding result: binds
B26: anti-CD22 heavy chain-only antibody Clone ID 335295 (antibody, V domains shown)
VH: B1 VH with D27G, G32S, D33S, H52S, V58A, K77R, K83N, N104S
notes: as for B1

binding result: binds
B27: anti-CD22 heavy chain-only antibody Clone ID 335233 (antibody, V domains shown)
VH: B1 VH with H52S, V58S, N67S
notes: as for B1

binding result: binds
B28: anti-CD22 heavy chain-only antibody Clone ID 335220 (antibody, V domains shown)
VH: B1 VH with D27G, G32S, D33S, H52S, V58S
notes: as for B1

binding result: binds
B29: anti-CD22 heavy chain-only antibody Clone ID 335283 (antibody, V domains shown)
VH: B1 VH with D27G, G32S, D33S, H52S, V58A, N104S
notes: as for B1

binding result: binds
B30: anti-CD22 heavy chain-only antibody Clone ID 335208 (antibody, V domains shown)
VH: B1 VH with D27G, G32S, D33S, H52S, V58A, K77R, K83N
notes: as for B1

binding result: binds
B31: anti-CD22 heavy chain-only antibody Clone ID 335207 (antibody, V domains shown)
VH: B1 VH with N67S, K77R
notes: as for B1

binding result: binds
B32: anti-CD22 heavy chain-only antibody Clone ID 335301 (antibody, V domains shown)
VH: B1 VH with H52N, V58A, N104S
notes: as for B1

binding result: binds
B33: anti-CD22 heavy chain-only antibody Clone ID 335323 (antibody, V domains shown)
VH: B1 VH with D33G, H52S, V58S, N104S
notes: as for B1

binding result: binds
B34: anti-CD22 heavy chain-only antibody Clone ID 335271 (antibody, V domains shown)
VH: B1 VH with Q41H, V58A, N104S
notes: as for B1

binding result: binds
B35: anti-CD22 heavy chain-only antibody Clone ID 335236 (antibody, V domains shown)
VH: B1 VH with D27G, G32S, D33S, H52S, V58S, N67S
notes: as for B1

binding result: binds
B36: anti-CD22 heavy chain-only antibody Clone ID 335311 (antibody, V domains shown)
VH: QLQLQESGPGLVKPSETLSLTCAVYGGSFSGYYWGWIRQPPGKGLEWIGHIYYSGATYYNPSLKNRVTISVDTSRNQFSLNLSSVTAADTAVYYCTREDSSSWRSRGQGTLVTVSS
notes: as for B1

binding result: binds
B37: anti-CD22 heavy chain-only antibody Clone ID 335179 (antibody, V domains shown)
VH: QLQLQESGPGLVKPSETLSLTCTVSGGSISSSSYYWGWFRHPPGKGLDWIGSIHYSGSTYYNPSLKSRVTISVDTSRNQFSLNLSSVTAADTAVYYCTRDDSSNWRSRGQGTLVTVSS
notes: as for B1
